Experiments:
[1] = target: T1, MICA expressed on CHO-K1-MICA cells (human, UniProt Q29983 24-383); test: Western blot of CHO-K1-MICA lysate
T1 construct: Full-length entry as expressed from the lentiviral vector
T1 sequence: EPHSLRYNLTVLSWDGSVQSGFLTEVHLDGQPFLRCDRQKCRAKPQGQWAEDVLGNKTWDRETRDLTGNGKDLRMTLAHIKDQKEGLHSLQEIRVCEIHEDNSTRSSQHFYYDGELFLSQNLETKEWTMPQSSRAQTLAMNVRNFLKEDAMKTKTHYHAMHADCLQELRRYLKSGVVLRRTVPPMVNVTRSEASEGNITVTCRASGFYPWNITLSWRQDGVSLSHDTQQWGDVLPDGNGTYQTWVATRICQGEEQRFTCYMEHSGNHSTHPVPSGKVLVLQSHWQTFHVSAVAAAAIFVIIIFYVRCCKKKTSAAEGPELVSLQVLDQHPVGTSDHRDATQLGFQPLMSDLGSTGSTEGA
Protocol: The Western blot assay was used to determine the antigenic epitope characteristics of the MICA antibody.
CHO-K1-MICA, CHO-K1 cells constructed in Example 4 were washed twice with PBS. The RIPA lysate was then added for lysis for 15 min on ice. After 5 min of centrifugation at 15,000 g at 4° C., the supernatant was collected. The lysate supernatant was subjected to protein quantification using a BCA kit. Sample was then prepared with SDS-PAGE loading buffer and the sample addition amount is 50 μg/well. After electrophoresis, the sample was transferred to a nitrocellulose membrane and blocked with 5% nonfat dried milk at room temperature for 1 h. MICA antibody diluted at 1:2000 (w/v) was then added and incubated overnight at 4° C. The membrane was washed 5 min×6 times with 1%% PBST, then HRP-goat anti-mouse IgG diluted at 1:5000 (v/v) was added and incubated at room temperature for 1 h. The membrane was washed 5 min×6 times with 1%% PBST. Chemiluminescence was detected using ECL substrate development. The results are shown in FIG. 8, further showing that the antibody of the present disclosure can bind to a linear epitope of MICA protein.

[2] = target: T2, MICA extracellular domain α3 domain Fc fusion protein (MICA α3-Fc) (human); test: ELISA, MICAα3-Fc coated
T2 construct: also called MICA α3 domain
T2 sequence (chain, as listed by the source limits assumed): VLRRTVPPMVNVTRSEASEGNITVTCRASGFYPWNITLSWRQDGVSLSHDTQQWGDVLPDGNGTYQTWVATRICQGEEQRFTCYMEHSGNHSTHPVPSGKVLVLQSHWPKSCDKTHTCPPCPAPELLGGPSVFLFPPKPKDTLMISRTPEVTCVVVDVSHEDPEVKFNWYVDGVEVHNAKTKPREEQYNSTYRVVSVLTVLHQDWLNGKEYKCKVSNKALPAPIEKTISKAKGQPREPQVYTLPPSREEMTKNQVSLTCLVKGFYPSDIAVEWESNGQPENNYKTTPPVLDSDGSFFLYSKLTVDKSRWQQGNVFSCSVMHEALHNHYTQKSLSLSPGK
Protocol: The MICAα3-Fc fusion protein (amino acid sequence as set forth in SEQ ID NO: 24) was diluted to 1 μg/mL with PBS buffer and added to a 96-well plate in a volume of 100 μL/well and left overnight at 4° C. The PBS buffer solution was sucked off from the 96-well plate. The plate was washed 6 times with PBST (pH 7.2, PBS containing 0.1% Tween 20) buffer solution. 200 μL/well PBS/10% BSA was added and incubated at 37 °C for 2 hours for blocking. The blocking solution was removed. The plate was washed 6 times with PBST. The MICA antibodies to be tested were diluted to an appropriate concentration with 100 µL/well PBST/0.05% BSA, and incubated at 37 °C for 1 h. The reaction system was removed. The plate was washed 6 times with PBST. HRP (horseradish peroxidase)-labeled anti-mouse antibody secondary antibody (Boster, BA1050) was diluted with PBST/0.05% BSA at 100 μL/well and incubated for 1 h at 37° C. The plate was washed 6 times with PBST, and 80 μL/well TMB (tetramethylbenzidine) was added. After 3 min of incubation at room temperature, and 80 μL/well 4M sulfuric acid was added to terminate the reaction. The absorbance at […] was read with a microplate reader.

[3] = target: T3, MICA*002α3-Fc fusion protein; test: ELISA, MICA*002α3-Fc coated
T3 construct: also called MICAα3*002 variant
T3 sequence (chain, as listed by the source limits assumed): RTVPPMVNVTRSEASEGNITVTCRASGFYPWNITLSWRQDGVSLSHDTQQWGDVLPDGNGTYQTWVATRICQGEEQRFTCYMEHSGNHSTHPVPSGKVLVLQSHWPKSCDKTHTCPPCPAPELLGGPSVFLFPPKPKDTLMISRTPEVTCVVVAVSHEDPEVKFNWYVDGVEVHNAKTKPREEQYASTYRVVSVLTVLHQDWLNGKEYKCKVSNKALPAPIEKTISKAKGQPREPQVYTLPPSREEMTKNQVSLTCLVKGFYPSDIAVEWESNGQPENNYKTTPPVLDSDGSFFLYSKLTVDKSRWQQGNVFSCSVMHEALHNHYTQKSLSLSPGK
Text: (§1) The binding characteristics of the MICA antibody and the α3 domains of MICA and MICB was detected by ELISA in this example. The obtained various MICA, MICB variant extracellular region α3 domains (MICAα3*-002, 004, 005, 008, MICBα3*-005) Fc fusion proteins (MICAα3-Fc, MICBα3-Fc) and control antibody IgG were coated into a 96-well plate by the inventors. The signal strength after antibody addition was used to determine the binding characteristics of the antibody to MICA and MICB.
(§2) The fusion protein (MICA*002α3-Fc, amino acid sequence is as set forth in SEQ ID NO: 33; MICA*004α3-Fc, the amino acid sequence is as set forth in SEQ ID NO: 34; MICA*005α3-Fc, the amino acid sequence is as set forth in SEQ ID NO: 35; MICA*008α3-Fc, the amino acid sequence is as set forth in SEQ ID NO: 36; MICB*005α3-Fc, the amino acid sequence is as set forth in SEQ ID NO: 37) was diluted to 1 μg/ml with the PBS buffer and added to a 96-well plate in a volume of 100 μL/well and left overnight at 4° C. The PBS buffer solution was sucked off from the 96-well plate. The plate was washed 6 times with PBST (pH 7.2, PBS containing 0.1% Tween 20) buffer solution. 200 μL/well PBS/10% BSA was added and incubated at 37° C. for 2 hours for blocking. The blocking solution was removed. The plate was washed 6 times with PBST. […] The absorbance at […] was read with a microplate reader. […]

[4] = target: T4, MICB*005α3-Fc fusion protein; test: ELISA, MICB*005α3-Fc coated
T4 construct: also called MICBα3*005 variant
T4 sequence (chain, as listed by the source limits assumed): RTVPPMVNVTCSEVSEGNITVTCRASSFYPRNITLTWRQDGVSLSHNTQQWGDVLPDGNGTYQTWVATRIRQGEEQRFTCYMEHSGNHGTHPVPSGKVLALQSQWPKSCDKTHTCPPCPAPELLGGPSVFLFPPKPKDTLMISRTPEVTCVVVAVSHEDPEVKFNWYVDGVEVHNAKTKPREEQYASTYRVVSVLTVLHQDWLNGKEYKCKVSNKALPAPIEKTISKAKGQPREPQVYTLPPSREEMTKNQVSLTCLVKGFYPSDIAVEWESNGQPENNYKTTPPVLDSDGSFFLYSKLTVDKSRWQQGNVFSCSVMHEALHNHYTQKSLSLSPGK
Text: as §1, §2

[5] = target: T5, MICA*004α3-Fc fusion protein; test: ELISA, MICA*004α3-Fc coated
T5 construct: also called MICAα3*004 variant
T5 sequence (chain, as listed by the source limits assumed): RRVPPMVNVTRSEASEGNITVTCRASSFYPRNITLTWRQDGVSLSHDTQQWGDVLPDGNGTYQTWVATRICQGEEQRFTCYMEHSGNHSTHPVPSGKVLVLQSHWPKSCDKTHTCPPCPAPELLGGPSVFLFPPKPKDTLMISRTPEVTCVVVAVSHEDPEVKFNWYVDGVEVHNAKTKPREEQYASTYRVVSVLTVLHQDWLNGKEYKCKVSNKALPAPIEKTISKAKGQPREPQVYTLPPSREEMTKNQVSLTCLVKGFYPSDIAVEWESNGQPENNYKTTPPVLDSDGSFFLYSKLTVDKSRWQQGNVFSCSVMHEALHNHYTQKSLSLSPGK
Text: as §1, §2

[6] = target: T6, recombinant MICA extracellular region Fc fusion protein (MICA-Fc) (human); test: ELISA, MICA-Fc coated
T6 construct: also called human MICA
Protocol: The ELISA assay was used to detect the binding characteristics of the MICA antibody obtained in Example 1. The MICA extracellular region Fc fusion protein (MICA-Fc) as described above was coated into a 96-well plate. The signal strength after antibody addition was used to determine the binding characteristics of the antibody to MICA.
The MICA-Fc fusion protein (amino acid sequence as set forth in SEQ ID NO: 23) was diluted to 1 μg/mL with PBS buffer and added to a 96-well plate in a volume of 100 μL/well and left overnight at 4° C. The PBS buffer solution was sucked off from the 96-well plate. The plate was washed 6 times with PBST (pH 7.2, PBS containing 0.1% Tween 20) buffer solution. 200 μL/well PBS/10% BSA was added and incubated at 37 °C for 2 hours for blocking. The blocking solution was removed. The plate was washed 6 times with PBST. The MICA antibody to be tested was diluted to an appropriate concentration with 100 μL/well PBST/0.05% BSA, and incubated for 1 h at 37° C. The reaction system was removed. The plate was washed 6 times with PBST. HRP (horseradish peroxidase)-labeled anti-mouse antibody secondary antibody (Boster, BA1050) was diluted with PBST/0.05% BSA at 100 μL/well and incubated for 1 h at 37° C. After the incubation, the plate was washed 6 times with PBST, and 80 μL/well TMB (tetramethylbenzidine) was added. […] The absorbance at […] was read with a microplate reader.

[7] = target: T7, MICA*008α3-Fc fusion protein; test: ELISA, MICA*008α3-Fc coated
T7 construct: also called MICAα3*008 variant
T7 sequence (chain, as listed by the source limits assumed): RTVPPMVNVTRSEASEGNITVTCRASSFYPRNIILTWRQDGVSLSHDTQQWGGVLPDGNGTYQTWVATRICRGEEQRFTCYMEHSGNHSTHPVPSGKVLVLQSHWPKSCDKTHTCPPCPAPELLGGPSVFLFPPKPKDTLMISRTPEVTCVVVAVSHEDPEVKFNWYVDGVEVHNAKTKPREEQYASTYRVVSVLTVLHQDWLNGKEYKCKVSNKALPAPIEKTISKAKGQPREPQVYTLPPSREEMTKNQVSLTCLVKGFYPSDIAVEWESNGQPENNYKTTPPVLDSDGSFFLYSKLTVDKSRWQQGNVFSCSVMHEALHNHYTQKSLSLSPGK
Text: as §1, §2

Measured: binding result

B1: MICA antibody 5A1 (murine monoclonal antibody against human MICA) (antibody, V domains shown)
VH: QVQLKQSGPGLVQPSQSLSITCIVSGFSLTTYGVHWVRQSPGKGLEWLGMIWTDGTTDYNAAFISRLSINKDNSKSQVFLKMNSLQADDTGIYYCVRKGHGYYYAMDYWGQGTSVTVSS
VL: QILLTQSPAILSASLGERVTMTCTASSSVSSSYLHWYQQKPGSSPKLWIYSTSNLASGVPARFSGGGSGTSYSLTVSNMEAEDAATYYCHQYHRSPFTFGSGTKLEIK
notes: Murine monoclonal antibody from a hybridoma; also called No. 5A1; the antibody of the present disclosure
binds: all assays above

Reference: US20240166752A1 (HEFEI TG IMMUNOPHARMA, published 2024)
